For test [1], the target named is T1, Peptide-biotin.
T1 construct: also called antigen
The experiment in a line: SPR Biacore 8K, purified IgG Fc-captured, Peptide-biotin analyte, 1:1 fit. How it is done:
The affinity of purified antibody binding to Peptide-biotin was individually determined using a Surface Plasmon Resonance (SPR) biosensor, Biacore 8K (GE Healthcare). Antibodies were captured on the sensor chip through Fc capture method. Peptide-biotin was used as the analyte. The data of dissociation (kd) and association (ka) rate constants were obtained using Biacore 8K evaluation software. The equilibrium dissociation constants (KD) were calculated from the ratio of kd over ka.

The target in test [2] is T2, human TRPM4 expressed in transfected HEK 293 cells (human, UniProt Q8TD43 1-1214).
T2 construct: whole, on cells; also called transient receptor potential melastatin 4
T2 sequence (Q8TD43 whole entry): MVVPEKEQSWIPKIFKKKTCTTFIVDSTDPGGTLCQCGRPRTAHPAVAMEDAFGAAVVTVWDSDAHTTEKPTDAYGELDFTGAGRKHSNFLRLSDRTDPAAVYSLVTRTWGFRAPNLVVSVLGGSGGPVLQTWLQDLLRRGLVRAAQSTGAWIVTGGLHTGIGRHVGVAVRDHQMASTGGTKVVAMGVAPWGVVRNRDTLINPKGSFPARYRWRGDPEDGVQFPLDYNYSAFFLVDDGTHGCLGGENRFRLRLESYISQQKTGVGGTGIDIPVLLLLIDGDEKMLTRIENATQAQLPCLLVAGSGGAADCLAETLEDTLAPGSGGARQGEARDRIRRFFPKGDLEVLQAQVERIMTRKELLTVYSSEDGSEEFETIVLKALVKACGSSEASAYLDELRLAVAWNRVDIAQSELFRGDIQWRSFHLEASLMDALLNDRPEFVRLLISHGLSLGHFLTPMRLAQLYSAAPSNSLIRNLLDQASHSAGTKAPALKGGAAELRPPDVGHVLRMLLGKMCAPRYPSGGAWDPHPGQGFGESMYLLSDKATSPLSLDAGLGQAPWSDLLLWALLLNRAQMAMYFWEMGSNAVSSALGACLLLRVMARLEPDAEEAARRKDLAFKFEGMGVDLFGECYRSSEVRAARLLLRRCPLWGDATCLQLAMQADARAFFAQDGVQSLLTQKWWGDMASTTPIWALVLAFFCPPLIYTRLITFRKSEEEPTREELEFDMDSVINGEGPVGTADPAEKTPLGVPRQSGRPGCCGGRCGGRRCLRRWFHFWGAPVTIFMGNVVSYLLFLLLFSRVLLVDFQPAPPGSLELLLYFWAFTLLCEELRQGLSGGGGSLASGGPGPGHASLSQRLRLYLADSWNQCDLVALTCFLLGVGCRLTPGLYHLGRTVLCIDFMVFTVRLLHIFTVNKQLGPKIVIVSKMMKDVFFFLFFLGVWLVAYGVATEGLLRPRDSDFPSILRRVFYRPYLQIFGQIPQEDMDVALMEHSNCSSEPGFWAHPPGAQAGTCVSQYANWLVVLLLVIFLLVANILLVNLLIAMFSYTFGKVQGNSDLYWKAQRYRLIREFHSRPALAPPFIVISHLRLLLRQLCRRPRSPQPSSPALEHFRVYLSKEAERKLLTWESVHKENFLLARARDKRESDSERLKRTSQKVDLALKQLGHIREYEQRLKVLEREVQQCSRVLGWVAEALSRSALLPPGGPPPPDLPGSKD
Nature of the test: immunofluorescent staining of HEK 293 cells transfected with human TRPM4; colocalization with WGA (surface TRPM4).

The target of test [3] is T1, Peptide-biotin. The experiment in a line: SPR Biacore 8K affinity ranking; antibody Fc-captured, Peptide-biotin analyte, 1:1 fit. How it is done: For affinity ranking, antibodies were captured on the sensor chip through Fc capture method. Peptide-biotin was used as the analyte. The surface was regenerated before the injection of another antibody. The process was repeated until all antibodies are analyzed. The off-rates of antibodies were obtained from fitting the experimental data locally to 1:1 interaction model using the Biacore 8K evaluation software. The antibodies were ranked by their dissociation rate constants (off-rates, kd). Based on the ranking result, the top 3 clones were selected.
Humanized antibodies were generated by replacing the framework regions (FRs) from mouse M4M antibody with counterparts from human, while maintaining the antibody's complementarity-determining regions (CDRs) binding regions. The antibody binding affinity of the chimeric and humanized antibodies was assessed by surface plasmon resonance (SPR) as shown in Table 1. Antibody clone A1 is the chimeric antibody and antibody clones A2-7 are humanized antibodies. Based on the results obtained from SPR, humanized clone A2 has the strongest SPR signal. For affinity ranking, antibodies were captured on the sensor chip through Fc capture method. Peptide-biotin was used as the analyte. The surface was regenerated before the injection of another antibody. The process was repeated until all antibodies are analyzed. The off-rates of antibodies were obtained from fitting the experimental data locally to 1:1 interaction model using the Biacore 8K evaluation software. The antibodies were ranked by their dissociation rate constants (off-rates, kd). Based on the ranking result, the top humanized clones were selected. […] Bolded and underlined amino acids correspond to the back mutation sites in the framework regions.

Test [4] deals with T2, human TRPM4 expressed in transfected …. The experiment in a line: cell-based or functional assay.

B1: anti-TRPM4 chimeric antibody clone A1 (VH + VL) (antibody, V domains shown)
VH: QVQLQESGPGLVKPSQSLSLTCTVTGYSITSDYAWNWIRQFPGNKLQWMGYLSYSGVTSYNPSLKGRISITRDTSKNQFFLQLSSVTPEDTATYYCARKGTYYRYEGSYWYFDVWGAGTTVTVSS
VL: DIQMNQSPSSLSASLGDTITITCHANQNIDVWLSWYQQKPGNVPKLLIYKTSNLHTGVPSRFSGSGSGTDFTLTISSLQPEDIATYYCQQGQSYPLTFGGGTKLEIK
notes: also called VH + VL (A1)
In the test with Peptide-biotin [1], B1 gave a Kd of 1.74 nM, a koff of 0.000543 s⁻¹ and a kon of 312000 M⁻¹ s⁻¹. Also, the binding result in test [2] is “binds”. In the test with Peptide-biotin [3], the Kd was determined as 4.61 nM, the koff is 0.0015 s⁻¹ and the kon came out at 325000 M⁻¹ s⁻¹.

B2: humanized anti-TRPM4 antibody clone A2 (VH1 + VL1) (antibody, human IgG1, kappa, V domains shown)
VH: QVQLQESGPGLVKPSQTLSLTCTVSGYSITSDYAWNWIRQHPGKGLEWIGYLSYSGVTSYNPSLKGRVTISVDTSKNQFSLKLSSVTAADTAVYYCARKGTYYRYEGSYWYFDVWGQGTTVTVSS
VL: DIQMTQSPSSLSASVGDRVTITCHANQNIDVWLSWYQQKPGKAPKLLIYKTSNLHTGVPSRFSGSGSGTDFTFTISSLQPEDIATYYCQQGQSYPLTFGGGTKLEIKR
notes: also called VH1 + VL1 (A2)
For B2, in the test with Peptide-biotin [1], binding was characterised by a dissociation constant (Kd) of 3.16 nM, the koff turned out to be 0.000605 s⁻¹ and the kon came out at 191000 M⁻¹ s⁻¹. In the test with Peptide-biotin [3], this molecule gave a Kd of 6.66 nM, a koff of 0.00166 s⁻¹ and a kon of 249000 M⁻¹ s⁻¹. In addition, the “IC50 of dose-dependent inhibition of hypoxia-induced TRPM4 current increase (whole-cell patch clamp)” value in test [4] stood at 1.23 µg/mL.

(Values after US20260209321A1 (SINGAPORE HEALTH SERVICES PTE, published 2026).)
